Data taken from PMC5291247.
Several values for one entry are separate records, joined by “and”; a condition that tells them apart may be missing. Equal values may be shown once.

What was measured:
[1] = target: Vps75 from which native cysteine residues had been removed (yeast (S. cerevisiae in the introduction)) (UniProt P53853); experiment: cross-linking; Vps75 titrated with H3-H4 at 200 mM NaCl, 20 mM HEPES pH 7.5; 30 min room temperature, 2 mM BS2G for 1 h, SDS-PAGE
[2] = target: Vps75 from which native cysteine residues had been removed (yeast (S. cerevisiae in the introduction)) (UniProt P53853); experiment: SEC-MALS + cross-linking; partial DTSSP cross-linking at 200 mM NaCl, 20 mM HEPES pH 7.5 (Vps75 alone, or Vps75 dimers and H3-H4 dimers 1:1, 10 uM); SEC-MALS on Superdex 200 10/300 GL at 400 mM NaCl, 20 mM HEPES-KOH pH 7.5; fractions on SDS-PAGE with and without DTT
[3] = target: Vps75 from which native cysteine residues had been removed (yeast (S. cerevisiae in the introduction)) (UniProt P53853); experiment: cross-linking; cross-linking analysis of Vps75 with Asf1 and H3-H4, SDS-PAGE (Supplementary Figure S4)

Substance	stoichiometry N [1]	stoichiometry N [2]	stoichiometry N (Vps75 monomers per H3-H4 dimer) [3]
Vps75 from which native cysteine residues had been removed (from UniProt P53853 1-264) (natural protein)	4	4 and 2	
histones H3–H4 from which native cysteine residues had been removed (from UniProt P84233 1-136; P62799 1-103) (complex)			2
